What was measured:
Format in all cases: biochemical, E. coli
AKIII = AKIII enzyme activity and inhibition by L-lysine, cell-free extract of GT3 transformants
Description: No. 24, No. 43, No. 48, No. 60, No. 80, No. 117, No. 126, No. 149, No. 150, No. 156, No. 158, No. 167, No. 169 and No. 172 were selected as representative strains of the aforementioned 14 groups. Mutant plasmids derived from pLYSC1 were recovered from each of them, and designated as pLYSC1*24, pLYSC1*43, pLYSC1*48, pLYSC1*60, pLYSC1*80, pLYSC1*117, pLYSC1*126, pLYSC1*149, pLYSC1*150, pLYSC1*156, pLYSC1*158, pLYSC1*167, pLYSC1*169 and pLYSC1*172, respectively. An AK completely deficient strain GT3 was transformed with them and the wild type pLYSC1. A cell-free extract was prepared from each of transformed strains, and the enzyme activity of AKIII was measured.
The cell-free extract (crude enzyme solution) was prepared as follows. A transformed strain was cultivated in a 2×TY medium, and collected at an OD660 of about 0.8. Cells were washed with 0.02 M KH2 PO4 (pH 6.75)-0.03 M β-mercaptoethanol under a condition of 0° C., and the cells were ruptured by sonication (0° C., 100 W, 30 minutes×4). A ruptured cell solution was centrifuged at 33 krpm for 1 hour under a condition of 0° C. to obtain a supernatant,to which ammonium sulfate was added to give 80% saturation. After centrifugation, a pellet was dissolved in 0.02 M KH2 PO4 (pH 6.75)-0.03 M β-mercaptoethanol, and stored at 0° C. overnight.
The enzyme activity of AKIII was measured in accordance with a method of Stadtman et al. (Stadtman, E. R., Cohen, G. N., LeBras, G., and Robichon-Szulmajster, H., J. Biol. Chem., 236, 2033 (1961)). Namely, a reaction solution having the following composition was incubated at 27° C. for 45 minutes, and an FeCl3 solution (2.8 N HCl 0.4 ml +12% TCA 0.4 ml +5% FeCl3. 6H2 O/0.1 N HCl 0.7 ml) was added to develop a color, which was centrifuged followed by measurement of absorbance of a supernatant at 540 nm. The activity was indicated by an amount of hydroxamic acid generated per minute (1 U=1 μmol/min). The molar absorption coefficient was 600. Potassium aspartate was removed from the reaction solution to be used as a blank.
Various concentrations of L-lysine were added to the enzyme reaction solution for measurement of the enzyme activity of AK, and the degree of inhibition by L-lysine was examined.
On the contrary, the mutant AKIII's obtained this time had various degrees of desensitization, however, inhibition by L-lysine was desensitized in all of 14 species. […] The specific activity per total protein, which might be affected by growth situations of cell and preparation of samples, was equal to or more than that of the wild type in almost all cases, in which there was little problem of decrease in activity due to the introduction of mutation (Table 3). […]

DDPS = DDPS enzyme activity and inhibition by L-lysine, cell-free extract of JE7627 transformants
Experimental: Mutant pdapA2's were recovered from the 36 strains described above. A dapA-deficient strain, JE7627 was transformed with them and the wild type pdapA2, respectively. A cell-free extract was prepared from each of the transformed strains, and the enzyme activity of DDPS was measured.
(§1) The cell-free extract (crude enzyme solution) was prepared as follows. A transformed strain was cultivated in a 2×TY medium (1.6% Bacto trypton, 1% Yeast extract, 0.5% NaCl), and collected at an optical density at 660 nm (OD660) of about 0.8. A cell pellet was washed with 0.85% NaCl under a condition of 0° C., and suspended in 20 mM potassium phosphate buffer (pH 7.5) containing 400 mM KCl. The cells were ruptured by sonication (0° C., 200 W, 10 minutes). A ruptured cell solution was centrifuged at 33 krpm for 1 hour under a condition of 0° C. to obtain a supernatant to which ammonium sulfate was added to give 80% saturation to be stored at 0° C. overnight followed by centrifugation. A pellet was dissolved in 20 mM potassium phosphate buffer (pH 7.5)-400 mM KCl.
The enzyme activity of DDPS was measured in accordance with a method of Yugari et al. (Yugari, Y. and Gilvarg, C., J. Biol. Chem., 240, 4710 (1962)). Namely, the absorbance of a reaction solution having the following composition was measured at 37° C. with a spectrophotometer at a wavelength of 270 nm in a time-dependent manner. And generated dihydrodipicolinate was measured. Sodium pyruvate was removed from the reaction system to be used as a blank.
Various concentrations of L-lysine were added to the enzyme reaction solution during measurement of the enzyme activity of DDPS, and the degree of inhibition by L-lysine was examined.

[1] = tested on: DDPS (dihydrodipicolinate synthase); assay: DDPS activity of crude enzyme solutions from W3110(tyrA) strains and inhibition by L-lysine
Experimental: as §1, with “A pellet was dissolved in 20 mM potassium phosphate buffer (pH 7.5)-400 mM KCl.” left out
The enzyme activity of DDPS was measured in accordance with a method of Yugari et al. (Yugari, Y. and Gilvarg, C., J. Biol. Chem., 240, 4710 (1962)). Namely, the absorbance of a reaction solution having the following composition was measured at 37° C. with a spectrophotometer at a wavelength of 270 nm in a time-dependent manner. And generated dihydrodipicolinate was measured. […]
Crude enzyme solutions were prepared from W3110(tyrA), W3110(tyrA)/pdapA and W3110(tyrA)/pdapA* in the same manner as in Example 1, the DDPS (dihydrodipicolinate synthase) activity was measured, and the degree of inhibition of the DDPS activity by L-lysine was examined.

[2] = in the presence of 5 mM of L-lysine
[3] = various concentrations of L-lysine, FIG. 2

Molecule	Inhibition of AKIII by L-lysine (AKIII; 5 mM of L-lysine)	Specific activity (AKIII; 1 U=1 μmol/min hydroxamic acid)	Degree of desensitization of inhibition (AKIII; AK activity in the presence of 100 mM of L-lysine with respect to AK activity in the absence of L-lysine)	Inhibition of AKIII by L-lysine (AKIII; [2])	Inhibition of DDPS by L-lysine (DDPS; [2])	Inhibition of DDPS by L-lysine (DDPS; [3])	Specific activity relative to the wild type enzyme (DDPS) [1]	Specific activity of DDPS as compared with the wild type (DDPS)
Wild type: wild type aspartokinase III (AKIII) of E. coli encoded by lysC on pLYSC1 (protein, UniProt P08660 2-449, looked up) Lysine-sensitive …: SEIVVSKFGGTSVADFDAMNRSADIVLSDANVRLVVLSASAGITNLLVALAEGLEPGERFEKLDAIRNIQFAILERLRYPNVIREEIERLLENITVLAEAAALATSPALTDELVSHGELMSTLLFVEILRERDVQAQWFDVRKVMRTNDRFGRAEPDIAALAELAALQLLPRLNEGLVITQGFIGSENKGRTTTLGRGGSDYTAALLAEALHASRVDIWTDVPGIYTTDPRVVSAAKRIDEIAFAEAAEMATFGAKVLHPATLLPAVRSDIPVFVGSSKDPRAGGTLVCNKTENPPLFRALALRRNQTLLTLHSLNMLHSRGFLAEVFGILARHNISVDLITTSEVSVALTLDTTGSTSTGDTLLTQSLLMELSALCRVEVEEGLALVALIGNDLSKACGVGKEVFGVLEPFNIRMICYGASSHNLCFLVPGEDAEQVVQKLHSNLFE	about 100%	0.0247 U/mg protein	0%	about 100%	–	–	–	–
wild type DDPS: wild type dihydrodipicolinate synthase of E. coli (dapA product) (protein, UniProt P0A6L2 1-292, looked up) 4-hydroxy-tetrahydrodipicolina …: MFTGSIVAIVTPMDEKGNVCRASLKKLIDYHVASGTSAIVSVGTTGESATLNHDEHADVVMMTLDLADGRIPVIAGTGANATAEAISLTQRFNDSGIVGCLTVTPYYNRPSQEGLYQHFKAIAEHTDLPQILYNVPSRTGCDLLPETVGRLAKVKNIIGIKEATGNLTRVNQIKELVSDDFVLLSGDDASALDFMQLGGHGVISVTANVAARDMAQMCKLAAEGHFAEARVINQRLMPLHNKLFVEPNPIPVKWACKELGLVATDTLRLPMTPITDSGRETVRAALKHAGLL	–	–	–	–	~80%	suffered inhibition by L-lysine	–	–
pdapAS24 (protein) MFTGSIVAIVTPMDEKGNVCRASLKKLIDYHVASGTSAIVSVGTTGESATLNHDEHADVVMMTLDLADGRIPVIAGTGANATAEAISLTQRFNDSGIVGCLTVTPYYNRPSQEGLYQYFKAIAEHTDLPQILYNVPSRTGCDLLPETVGRLAKVKNIIGIKEATGNLTRVNQIKELVSDDFVLLSGDDASALDFMQLGGHGVISVTTNVAARDMAQMCKLAAEEHFAEARVINQRLMPLHNKLFVEPNPIPVKWACKELGLVATDTLRLPMTPITDSGRETVRAALKHAGLL	–	–	–	–	–	desensitized	about 1/2	lowered a little
